# Test system: Escherichia coli TOP10
# Assay: shrunken log2 fold change of peptide-encoding DNA abundance (4.5 h post-induction vs induction); higher = less antimicrobial activity (less host growth inhibition)
# Conditions: time post-induction: 4.5 h; library: site-saturation at positions 5, 18, 19, 20
# 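Note: peptides expressed intracellularly from a pBAD plasmid library in pooled LB shake-flask culture, induced with 0.3% L-arabinose, DNA abundance read by NGS, three biological replicates, DESeq2 with apeglm shrinkage.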
row,Sequence,shrunken log2 fold change
1,RRIRYRPPRLPRPRPRPPQLPRP,-0.371
2,RRIRLRPPRLPRPRPRPAGSPRP,0.268
3,RRIRRRPPRLPRPRPRPKCAPRP,0.884
4,RRIRVRPPRLPRPRPRPQQRPRP,0.0774
5,RRIRARPPRLPRPRPRPMWTPRP,0.0207
6,RRIRRRPPRLPRPRPRPGGPPRP,0.321
7,RRIRSRPPRLPRPRPRPYNWPRP,-0.0406
8,RRIRCRPPRLPRPRPRPEKWPRP,-0.0207
9,RRIRRRPPRLPRPRPRPWHIPRP,-0.246
10,RRIRCRPPRLPRPRPRPAFRPRP,0.25
11,RRIRFRPPRLPRPRPRPQQRPRP,0.061
12,RRIRHRPPRLPRPRPRPRWSPRP,0.00212
13,RRIRNRPPRLPRPRPRPVSAPRP,0.219
14,RRIRTRPPRLPRPRPRPNYEPRP,-0.682
15,RRIRLRPPRLPRPRPRPSWTPRP,-0.0555
16,RRIRVRPPRLPRPRPRPPVWPRP,0.312
17,RRIRVRPPRLPRPRPRPCLDPRP,-0.135
18,RRIRVRPPRLPRPRPRPHIHPRP,-0.545
19,RRIRHRPPRLPRPRPRPMRCPRP,0.309
20,RRIRKRPPRLPRPRPRPHWIPRP,-0.0313
21,RRIRTRPPRLPRPRPRPGYAPRP,0.111
22,RRIRIRPPRLPRPRPRPLWMPRP,-0.303
23,RRIRFRPPRLPRPRPRPNNTPRP,-0.999
24,RRIRKRPPRLPRPRPRPAIRPRP,-0.29
25,RRIRQRPPRLPRPRPRPFWVPRP,0.176

row,Sequence,shrunken log2 fold change
1,RRIRPRPPRLPRPRPRPKWKPRP,-0.0038
2,RRIRHRPPRLPRPRPRPCFIPRP,-0.385
3,RRIRPRPPRLPRPRPRPPKQPRP,0.066
4,RRIRDRPPRLPRPRPRPLMWPRP,2.47
5,RRIRARPPRLPRPRPRPESDPRP,1.17
6,RRIRARPPRLPRPRPRPREYPRP,0.5
7,RRIRNRPPRLPRPRPRPHQEPRP,-0.00146
8,RRIRVRPPRLPRPRPRPCSHPRP,-0.246
9,RRIRWRPPRLPRPRPRPSEGPRP,0.0528
10,RRIRHRPPRLPRPRPRPNIRPRP,0.0598
11,RRIRMRPPRLPRPRPRPVDLPRP,0.405
12,RRIRARPPRLPRPRPRPDSPPRP,0.342
13,RRIRNRPPRLPRPRPRPNWRPRP,0.216
14,RRIRERPPRLPRPRPRPMMLPRP,-0.0415
15,RRIRRRPPRLPRPRPRPDANPRP,0.555
16,RRIRLRPPRLPRPRPRPWTVPRP,-0.176
17,RRIRVRPPRLPRPRPRPELAPRP,0.659
18,RRIRERPPRLPRPRPRPGPLPRP,-0.127
19,RRIRLRPPRLPRPRPRPCNCPRP,0.045
20,RRIRVRPPRLPRPRPRPCCIPRP,-0.0914
21,RRIRWRPPRLPRPRPRPGIRPRP,0.29
22,RRIRQRPPRLPRPRPRPGTQPRP,-0.152
23,RRIRIRPPRLPRPRPRPPDIPRP,-0.198
24,RRIRERPPRLPRPRPRPCTTPRP,-0.172
25,RRIRVRPPRLPRPRPRPKAKPRP,0.0989

row,Sequence,shrunken log2 fold change
1,RRIRFRPPRLPRPRPRPEFSPRP,0.0686
2,RRIRLRPPRLPRPRPRPTAVPRP,0.0335
3,RRIRMRPPRLPRPRPRPRATPRP,1.57
4,RRIRYRPPRLPRPRPRPMRWPRP,0.448
5,RRIRRRPPRLPRPRPRPVQLPRP,-0.0275
6,RRIRKRPPRLPRPRPRPPTEPRP,0.395
7,RRIRYRPPRLPRPRPRPIPPPRP,-0.171
8,RRIRPRPPRLPRPRPRPSFHPRP,0.626
9,RRIRHRPPRLPRPRPRPRREPRP,0.217
10,RRIRVRPPRLPRPRPRPMFMPRP,-0.562
11,RRIRMRPPRLPRPRPRPVVDPRP,0.0138
12,RRIRTRPPRLPRPRPRPLNPPRP,-0.19
13,RRIRPRPPRLPRPRPRPETDPRP,0.229
14,RRIRQRPPRLPRPRPRPMGQPRP,0.0628
15,RRIRPRPPRLPRPRPRPAPIPRP,0.0955
16,RRIRDRPPRLPRPRPRPQFDPRP,-0.0102
17,RRIRPRPPRLPRPRPRPTNAPRP,0.167
18,RRIRVRPPRLPRPRPRPPDTPRP,0.166
19,RRIRYRPPRLPRPRPRPVMKPRP,-0.131
20,RRIRWRPPRLPRPRPRPQHAPRP,-0.0577
21,RRIRERPPRLPRPRPRPQENPRP,-0.164
22,RRIRMRPPRLPRPRPRPAIPPRP,0.0268
23,RRIRGRPPRLPRPRPRPFKIPRP,0.0381
24,RRIRNRPPRLPRPRPRPMGMPRP,-0.0761
25,RRIRWRPPRLPRPRPRPCPLPRP,-0.247

row,Sequence,shrunken log2 fold change
1,RRIRFRPPRLPRPRPRPGVNPRP,0.0431
2,RRIRGRPPRLPRPRPRPGRPPRP,0.737
3,RRIRERPPRLPRPRPRPVPLPRP,-0.244
4,RRIRLRPPRLPRPRPRPNPPPRP,0.0837
5,RRIRRRPPRLPRPRPRPDWWPRP,-0.0208
6,RRIRMRPPRLPRPRPRPLNKPRP,0.118
7,RRIRKRPPRLPRPRPRPYALPRP,-0.119
8,RRIRRRPPRLPRPRPRPMAYPRP,-0.193
9,RRIRYRPPRLPRPRPRPYWLPRP,-1.14
10,RRIRCRPPRLPRPRPRPEGLPRP,0.0021
11,RRIRWRPPRLPRPRPRPFRSPRP,-0.128
12,RRIRCRPPRLPRPRPRPVSPPRP,0.198
13,RRIRYRPPRLPRPRPRPHCQPRP,-0.297
14,RRIRVRPPRLPRPRPRPKQDPRP,-0.266
15,RRIRKRPPRLPRPRPRPSIHPRP,-0.551
16,RRIRYRPPRLPRPRPRPVTKPRP,-0.543
17,RRIRMRPPRLPRPRPRPCPKPRP,-0.214
18,RRIRKRPPRLPRPRPRPFFYPRP,0.0957
19,RRIRVRPPRLPRPRPRPNCRPRP,-0.0746
20,RRIRHRPPRLPRPRPRPFMHPRP,-0.377
21,RRIRPRPPRLPRPRPRPGKKPRP,0.00372
22,RRIRHRPPRLPRPRPRPSDGPRP,-0.266
23,RRIRVRPPRLPRPRPRPDIPPRP,-0.263
24,RRIRRRPPRLPRPRPRPSGNPRP,0.122
25,RRIRDRPPRLPRPRPRPPPSPRP,0.838

row,Sequence,shrunken log2 fold change
1,RRIRHRPPRLPRPRPRPCKSPRP,0.0139
2,RRIRTRPPRLPRPRPRPDSWPRP,-0.595
3,RRIRIRPPRLPRPRPRPHNAPRP,-0.549
4,RRIRNRPPRLPRPRPRPLDQPRP,-0.266
5,RRIRDRPPRLPRPRPRPSHEPRP,-0.0403
6,RRIRKRPPRLPRPRPRPQPCPRP,0.192
7,RRIRGRPPRLPRPRPRPYPGPRP,-0.0165
8,RRIRRRPPRLPRPRPRPQEQPRP,-0.0166
9,RRIRIRPPRLPRPRPRPDFQPRP,-0.125
10,RRIRDRPPRLPRPRPRPLRCPRP,0.177
11,RRIRYRPPRLPRPRPRPGMDPRP,-0.299
12,RRIRGRPPRLPRPRPRPYQEPRP,0.0063
13,RRIRWRPPRLPRPRPRPDPWPRP,0.0147
14,RRIRNRPPRLPRPRPRPPARPRP,0.746
15,RRIRTRPPRLPRPRPRPCTFPRP,-0.241
16,RRIRCRPPRLPRPRPRPGPLPRP,0.213
17,RRIRVRPPRLPRPRPRPMTDPRP,0.168
18,RRIRKRPPRLPRPRPRPGIQPRP,0.0822
19,RRIRVRPPRLPRPRPRPGFQPRP,0.302
20,RRIRLRPPRLPRPRPRPQPWPRP,0.319
21,RRIRFRPPRLPRPRPRPWICPRP,-1.05
22,RRIRFRPPRLPRPRPRPHTSPRP,-0.907
23,RRIRQRPPRLPRPRPRPIFNPRP,-0.365
24,RRIRYRPPRLPRPRPRPVAMPRP,-0.464
25,RRIRWRPPRLPRPRPRPEPGPRP,0.43

row,Sequence,shrunken log2 fold change
1,RRIRGRPPRLPRPRPRPNYTPRP,-0.338
2,RRIRHRPPRLPRPRPRPQSNPRP,-0.288
3,RRIRWRPPRLPRPRPRPTRDPRP,0.0468
4,RRIRGRPPRLPRPRPRPWYHPRP,-0.347
5,RRIRYRPPRLPRPRPRPTTEPRP,0.00298
6,RRIRHRPPRLPRPRPRPFFLPRP,-0.238
7,RRIRVRPPRLPRPRPRPYCAPRP,-0.229
8,RRIRTRPPRLPRPRPRPTEMPRP,0.3
9,RRIRFRPPRLPRPRPRPNRNPRP,-0.836
10,RRIRSRPPRLPRPRPRPKLVPRP,-0.0443
11,RRIRMRPPRLPRPRPRPHLWPRP,0.374
12,RRIRLRPPRLPRPRPRPGVIPRP,-0.298
13,RRIRGRPPRLPRPRPRPSYCPRP,0.237
14,RRIRFRPPRLPRPRPRPFLKPRP,-0.145
15,RRIRGRPPRLPRPRPRPRKLPRP,0.86
16,RRIRSRPPRLPRPRPRPIDCPRP,-1.27
17,RRIRPRPPRLPRPRPRPEPWPRP,0.232
18,RRIRGRPPRLPRPRPRPAQHPRP,0.378
19,RRIRCRPPRLPRPRPRPPHIPRP,0.177
20,RRIRPRPPRLPRPRPRPQIMPRP,-0.265
21,RRIRYRPPRLPRPRPRPQHWPRP,0.0376
22,RRIRDRPPRLPRPRPRPFILPRP,-0.293
23,RRIRPRPPRLPRPRPRPYLNPRP,-0.765
24,RRIRVRPPRLPRPRPRPGLNPRP,-0.00582
25,RRIRGRPPRLPRPRPRPYTNPRP,-0.313

# From the supplement of paper PMC9112550, “Optimization of the antimicrobial peptide Bac7 by deep mutational scanning” (BMC Biology, 2022)
